We go through 5 molecules from US20220031842A1 (JIANGSU HENGRUI MEDICINE, published 2022).

For experiment [1], the target named is T1, Fusion protein of LAG-3 extracellular region and mIgG2a Fc (human).
T1 construct: Limits of the signal peptide are marked only by lost underlining; also called LAG-3-mFc; LAG-3-mFc fusion protein
T1 chain: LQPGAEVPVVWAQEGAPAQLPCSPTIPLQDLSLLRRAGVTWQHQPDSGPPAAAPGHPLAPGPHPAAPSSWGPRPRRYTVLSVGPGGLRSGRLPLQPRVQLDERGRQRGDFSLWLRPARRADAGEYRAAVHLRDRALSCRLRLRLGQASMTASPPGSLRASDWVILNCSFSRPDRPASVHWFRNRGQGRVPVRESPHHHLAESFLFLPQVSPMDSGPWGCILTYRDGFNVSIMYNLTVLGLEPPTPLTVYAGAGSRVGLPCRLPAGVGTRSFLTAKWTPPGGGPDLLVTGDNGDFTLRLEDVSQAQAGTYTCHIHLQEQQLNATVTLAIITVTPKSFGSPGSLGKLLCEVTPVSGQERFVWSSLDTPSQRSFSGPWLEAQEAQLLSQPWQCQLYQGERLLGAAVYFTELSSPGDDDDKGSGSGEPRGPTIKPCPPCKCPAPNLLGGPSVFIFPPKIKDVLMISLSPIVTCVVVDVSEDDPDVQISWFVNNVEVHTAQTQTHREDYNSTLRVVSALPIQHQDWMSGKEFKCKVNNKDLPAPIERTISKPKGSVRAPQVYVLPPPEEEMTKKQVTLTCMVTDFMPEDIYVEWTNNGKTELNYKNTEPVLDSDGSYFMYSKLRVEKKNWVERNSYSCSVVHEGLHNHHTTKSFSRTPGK
Briefly: ELISA, LAG-3-mFc captured by anti-mouse Fc on plate (which fusion: inferred). From the text: The binding ability of anti-LAG-3 antibody to human LAG-3 protein was detected by ELISA assay. LAG-3 fusion protein with Fc or mFc tag was immobilized into 96-well microtiter plate by binding to anti-Fc or anti-mFc antibody coated on the microtiter plate, the strength of the signal after the addition of the antibody was used to determine the binding activity of the antibody to LAG-3, the specific experimental method is as follows.
The goat anti-human Fc antibody (Jackson Immuno Research, Cat No. 109-005-008) or goat anti-mouse Fc antibody (Sigma, Cat No. M3534-1ML) was diluted to a concentration of 2 μg/ml with PBS buffer at pH 7.4 (Sigma, Cat No. P4417-100TAB), and added to a 96-well plate at a volume of 50 μl/well and then, the plate was incubated in the incubator at 37° C. for 2 hours. After discarding the liquid, the plates were blocked with 200 μl/well of blocking solution containing 5% skim milk (Bright Dairy, skim milk powder) in PBS, and incubated in the incubator at 37° C. for 2.5 hours or overnight at 4° C. (16-18 hours). After blocking, the blocking solution was discarded and the plate was washed 5 times with PBST buffer (PH7.4 PBS containing 0.05% tween-20). LAG-3-Fc fusion protein (SEQ ID NO:3, produced in-house) or LAG-3-mFc fusion protein (SEQ ID NO: 4, produced in-house) was diluted with sample diluent (PH7.4 PBS containing 1% BSA) to 1 μg/ml and was added to each well, 50 μl/well. Then the plate was incubated in the incubator at 37° C. for 1 h or overnight at 4° C. After incubation, the reaction solution in the plate was discarded, and the plate was washed with PBST for 6 times, and then was added with 50 μl/well of various concentrations of antibodies to be tested (hybridoma purified antibody or humanized antibody) which have been diluted with sample diluent, and the plate was incubated at 37° C. for 1 h. The plates was washed 5 times with PBST after incubation, and was added with 100 μl/well of goat anti-mouse (Jackson Immuno Research, Cat No. 115-035-003) or goat anti-human secondary antibody (Jackson Immuno Research, Cat No. 109-035-003) labeled with HRP, diluted in sample diluent, and the plate was incubated at 37° C. for 1 h.
On the technique in general: In an ELISA, binding on a coated surface is turned into a signal by an enzyme label.

Experiment [2] has as its target T2, Fusion protein of LAG-3 extracellular region and hIgG1 Fc (human).
T2 construct: Limits of the signal peptide are marked only by lost underlining; also called LAG-3-Fc; LAG-3-Fc fusion protein
Briefly: competition: biotin-LAG-3-Fc binding to fixed Daudi cells, antibody titrated. How it is done:
Daudi cells (human leukemia cells, purchased from the cell bank in Chinese Academy of Sciences) were seeded in 96-well plate with a density of 3×10⁵/well. After centrifugation at 1000 rpm, the supernatant was discarded and then the plate was fixed with 4% PFA for 30 min at room temperature. The plate was washed 4 times with PBS after discarding the fixed solution, and the plate was blocked with 200 μl/well of blocking solution containing 5% skim milk (Bright Dairy, skim milk powder) diluted in PBS, and incubated at 37° C. for 2.5 hours. After blocking, the blocking solution was discarded and the plate was washed 5 times with PBST buffer (pH7.4 PBS containing 0.05% tween-20), added with 50 μl/well mixture of biotin-labeled (Biotin labeling kit, Dojindo Chemical, Cat No. LK03) LAG-3-Fc fusion protein (produced in-house, SEQ ID NO: 3) and gradient concentrations of the antibody to be tested, wherein the biotin-labeled LAG-3-Fc fusion protein has been diluted with sample diluent (PH7.4 PBS containing 1% BSA) at a final concentration of 0.4 μg/ml, and pre-mixed for an hour, then the plate was incubated at 37° C. for 1 h. The reaction solution was discarded and the plate was washed 5 times with PBST after incubation, 50 μl/well of HRP-labeled Streptavidin (Sigma, Cat No. 52438) diluted with sample diluent was added, and the plate was incubated at 37° C. for 1 h. After washing the plate 5 times with PBST, 50 μl/well of TMB chromogenic substrate (KPL, Cat No. 52-00-03) was added to each well, and incubated at room temperature for 5-15 min, the reaction was stopped by the addition of 50 μl 1M H₂SO₄ to each well. The OD value at a wavelength of 450 nm was read on NOVOStar microplate reader, and then the activity of the LAG-3 antibody in blocking the binding of the antigen to Daudi cells was calculated.

For experiment [3], the target named is T3, LAG-3 extracellular domain with a Flag tag (human, UniProt P18627 23-434).
T3 construct: also called LAG-3-Flag; LAG-3-Flag antigen
T3 sequence: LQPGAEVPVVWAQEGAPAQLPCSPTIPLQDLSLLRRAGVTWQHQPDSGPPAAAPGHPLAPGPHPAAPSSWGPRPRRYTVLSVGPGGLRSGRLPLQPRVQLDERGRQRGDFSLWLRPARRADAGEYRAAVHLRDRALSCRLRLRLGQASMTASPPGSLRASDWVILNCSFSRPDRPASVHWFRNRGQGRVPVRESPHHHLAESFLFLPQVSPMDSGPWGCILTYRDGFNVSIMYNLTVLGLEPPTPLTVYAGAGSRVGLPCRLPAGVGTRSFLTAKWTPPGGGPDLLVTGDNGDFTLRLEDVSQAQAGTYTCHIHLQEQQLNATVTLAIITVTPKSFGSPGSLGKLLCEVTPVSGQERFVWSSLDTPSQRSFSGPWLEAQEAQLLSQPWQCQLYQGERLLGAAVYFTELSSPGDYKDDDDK
Briefly: SPR (Biacore), antibody captured on anti-human capture chip, LAG-3-Flag in flow. The text has this: 2. […] Then, the LAG-3-Flag antigen (produced in-house, SEQ ID NO:1) was flowed through the surface of the biochip, and the reaction signal was detected real time using a Biacore instrument to obtain the binding and dissociation curves, the value of affinity was obtained by fitting, see table 10 below. After each cycle of dissociation was finished in the experiment, the biochip was washed and regenerated with a regeneration solution provided in the human anti-capture kit.

T2 sequence (chain, as listed by the source limits assumed): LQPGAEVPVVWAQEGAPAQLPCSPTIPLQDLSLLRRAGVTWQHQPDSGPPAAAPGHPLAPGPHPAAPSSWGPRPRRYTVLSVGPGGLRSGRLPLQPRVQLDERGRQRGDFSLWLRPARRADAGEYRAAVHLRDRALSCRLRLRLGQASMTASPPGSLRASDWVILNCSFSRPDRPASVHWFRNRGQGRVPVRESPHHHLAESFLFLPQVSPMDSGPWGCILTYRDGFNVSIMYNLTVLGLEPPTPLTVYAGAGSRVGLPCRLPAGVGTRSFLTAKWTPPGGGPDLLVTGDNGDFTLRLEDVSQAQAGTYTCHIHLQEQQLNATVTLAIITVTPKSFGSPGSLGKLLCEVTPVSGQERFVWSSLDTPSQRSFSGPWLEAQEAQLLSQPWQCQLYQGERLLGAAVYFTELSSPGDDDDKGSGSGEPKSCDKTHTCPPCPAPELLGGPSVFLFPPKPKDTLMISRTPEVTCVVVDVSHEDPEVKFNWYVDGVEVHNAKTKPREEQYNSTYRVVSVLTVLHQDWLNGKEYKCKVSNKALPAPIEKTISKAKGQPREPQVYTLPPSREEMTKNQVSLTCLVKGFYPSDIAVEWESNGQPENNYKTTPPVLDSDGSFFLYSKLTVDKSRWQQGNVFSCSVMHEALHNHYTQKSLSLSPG

B1: Hu303-010 (antibody, human IgG4 S228P, kappa, V domains shown)
VH: QVQLVQSGAEVKKPGASVKVSCKASGYTFTDYYMNWVRQAPGQRLEWMGVINPYNGDTAYNQKFKGRVTITVDKSASTAYMELSSLRSEDTAVYYCTRDDGYYDYYFDVWGQGTTVTVSS
VL: DIQMTQSPSSLSASVGDRVTITCRASQDIGSRLNWYQQKPGKAPKRLIYATSTLDSGVPSRFSGSRSGTDFTLTISSLQPEDFATYYCLQLASSPPTFGGGTKVEIKR
notes: Humanized mAb303
By EC50 is commonly meant the concentration at which the effect is half-maximal. A high value points to lower potency in that assay. Broadly, the IC50 is the midpoint of a concentration-inhibition curve. A high value points to lower potency. As a reminder, the Kd is the equilibrium constant for the complex coming apart. Low readings indicate a tighter complex, high ones a looser complex. B1: the midpoint of the response in experiment [1], the EC50, lay at 0.137 nM. In addition, the IC50 in experiment [2] is 0.346 nM. Also, the Kd in experiment [3] amounted to 0.147 nM.

B2: Hu229-015 (antibody, human IgG4 S228P, kappa, V domains shown)
VH: QVQLVQSGSELKKPGASVKVSCKASGYTFTTSGMSWVKQAPGQGLKWMGWINTYSGVPTYADDFKGRFVFSLDTSVSTAYLQISSLKAEDTATYYCARDNYDARDVYYYAMDYWGQGTTVTVSS
VL: DIQMTQSPSSLSASVGDRVTITCRASENIYSNLAWYQQKPGKSPKLLVYAATNLADGVPSRFSGSGSGTQYTLTISSLQPEDFATYYCQHFWITPWTFGGGTKVEIKR
notes: Humanized mAb229
With B2, in experiment [1], the midpoint of the response, the EC50, lay at 0.156 nM. The same molecule showed an IC50 in experiment [2] of 0.808 nM. Moreover, in experiment [3], the Kd worked out at 0.0459 nM.

B3: Hu229-013 (antibody, human IgG4 S228P, kappa, V domains shown)
VH: QVQLVQSGSELKKPGASVKVSCKASGYTFTTSGMSWVKQAPGQGLKWMGWINTYSGVPTYADDFKGRFVFSLDTSVSTAYLQISSLKAEDTATYYCARDNYDARDVYYYAMDYWGQGTTVTVSS
VL: DIQMTQSPSSLSASVGDRVTITCRASENIYSNLAWYQQKPGKAPKLLVYAATNLADGVPSRFSGSGSGTDYTLTISSLQPEDFATYYCQHFWITPWTFGGGTKVEIKR
notes: also called LAG-3 antibody Hu229-013; LAG3 antibody Hu229-013
The molecule B3 came in with an EC50 in experiment [1] of 0.106 nM. Further, the IC50 in experiment [2] worked out at 0.39 nM. This molecule also gave a dissociation constant Kd in experiment [3] of 0.0281 nM.

B4: Hu229-019 (antibody, human IgG4 S228P, kappa, V domains shown)
VH: QVQLVQSGSELKKPGASVKVSCKASGYTFTTSGMSWVKQAPGQGLKWMGWINTYSGVPTYADDFKGRFVFSLDTSVSTAYLQISSLKAEDTATYFCARDNYDARDVYYYAMDYWGQGTTVTVSS
VL: DIQMTQSPSSLSASVGDRVTITCRASENIYSNLAWYQQKPGKSPKLLVYAATNLADGVPSRFSGSGSGTQYTLTISSLQPEDFATYYCQHFWITPWTFGGGTKVEIKR
notes: Humanized mAb229
On to B4, for which, in experiment [1], the EC50 amounted to 0.068 nM. Further, the IC50 in experiment [2] stood at 0.289 nM. In experiment [3], this molecule had a Kd of 0.0729 nM.

B5: Hu229-017 (antibody, human IgG4 S228P, kappa, V domains shown)
VH: QVQLVQSGSELKKPGASVKVSCKASGYTFTTSGMSWVKQAPGQGLKWMGWINTYSGVPTYADDFKGRFVFSLDTSVSTAYLQISSLKAEDTATYFCARDNYDARDVYYYAMDYWGQGTTVTVSS
VL: DIQMTQSPSSLSASVGDRVTITCRASENIYSNLAWYQQKPGKAPKLLVYAATNLADGVPSRFSGSGSGTDYTLTISSLQPEDFATYYCQHFWITPWTFGGGTKVEIKR
notes: Humanized mAb229
With B5, the midpoint of the response in experiment [1], the EC50, lay at 0.048 nM. Also, the half-inhibitory concentration (IC50) in experiment [2] came out at 0.239 nM. Further, in experiment [3], the Kd was found to be 0.0671 nM.
